Measurements: PMC3213152

Tests used:
[1] = target: Rck G118D mutant (Salmonella enterica serovar Typhimurium) (UniProt Q04817); assay: flow cytometry on cells; data not shown: FACS analysis with purified C4BP on the Rck G118D mutant against wt Rck
[2] = target: Rck, outer membrane protein of Salmonella enterica serovar Typhimurium, expressed on E. coli BL21(DE3) from plasmid pRck (Salmonella enterica serovar Typhimurium strain SL1344) (UniProt Q04817); assay: flow cytometry on cells; E. coli BL21(DE3) pRck with wt C4BP or the CCP7 or CCP8 deletion mutant (10 µg/ml); detected with monoclonal anti-C4BP MK104, specific for CCP1 of the α-chain; MFI of wt C4BP set to 100%
[3] = target: Rck, outer membrane protein of Salmonella enterica serovar Typhimurium, expressed on E. coli BL21(DE3) from plasmid pRck (Salmonella enterica serovar Typhimurium strain SL1344) (UniProt Q04817); assay: flow cytometry on cells; E. coli BL21(DE3) pRck in DPBS with purified C4BP (increasing amounts) or with wt C4BP or recombinant CCP deletion mutants at 10 µg/ml, 37°C; detected with sheep polyclonal anti-human C4BP; MFI of wt C4BP set to 100%

Human C4b-binding protein (C4BP) (from UniProt P04003 49-597; P20851 18-252) (complex)
fold less C4BP bound than by wt Rck [1]: 24 fold

Recombinant human C4BP mutant with CCP7 of the α-chain deleted (from UniProt P04003 49-597) (complex)
percent reduction in binding against wt C4BP [2]: 84%
percent reduction in binding against wt C4BP [3]: 70%

Recombinant human C4BP mutant with CCP8 of the α-chain deleted (from UniProt P04003 49-597) (complex)
percent reduction in binding against wt C4BP [2]: 78%
percent reduction in binding against wt C4BP [3]: 60%
